The target of one data set is APOBEC3A E72Q (human, UniProt P31941 1-199, E72Q). Put plainly: fluorescence anisotropy. Background: Fluorescence polarisation rises when a labelled molecule tumbles more slowly, as on binding a larger partner.
The target of another data set is APOBEC3A E72A/C171A (human, UniProt P31941 1-199, E72A;C171A). Put plainly: fluorescence anisotropy.

Among the data in publication PMC4874493 are Kd values, retold here.

Sequence of APOBEC3A E72A/C171A (P31941 whole entry E72A/C171A): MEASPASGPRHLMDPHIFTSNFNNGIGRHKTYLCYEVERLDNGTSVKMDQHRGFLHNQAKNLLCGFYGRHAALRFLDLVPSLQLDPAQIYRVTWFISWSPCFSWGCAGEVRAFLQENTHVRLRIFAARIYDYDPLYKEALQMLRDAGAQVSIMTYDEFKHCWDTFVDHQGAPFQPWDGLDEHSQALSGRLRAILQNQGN
Sequence of APOBEC3A E72Q (P31941 whole entry E72Q): as the sequence (P31941 whole entry E72A/C171A) above, with A72Q, A171C counted along it

B1: polyT (TTT) (ssDNA)
DNA: TTTTTTTTTTTTTTT
A word on the Kd: it is the equilibrium constant for the complex coming apart. A lower Kd goes with a tighter complex. As for B1, the Kd was 205 ± 20 nM with APOBEC3A E72Q and 502 ± 27 nM with APOBEC3A E72A/C171A.
